{"source": "paper PMC3428728", "system": "hSWI/SNF complex (FLAG-tagged) (Homo sapiens (HeLa))", "test": "competition", "details": "scale: fold preference over macroH2A nucleosome", "data": [{"substance": "20/60 H2A nucleosome", "values": [{"measurement": "binding signal", "value": 9}]}]}
